Reference: patent US20170106021A1, “COMPOSITIONS ENRICHED FOR HOX11+ STEM CELLS AND METHODS OF PREPARING THE SAME” (The General Hospital Corporation, priority 2014, published 2017)

B1: granulocyte colony-stimulating factor (protein, UniProt P09919 31-207, looked up)
Granulocyte …: TPLGPASSLPQSFLLKCLEQVRKIQGDGAALQEKLVSECATYKLCHPEELVLLGHSLGIPWAPLSSCPSQALQLAGCLSQLHSGLFLYQGLLQALEGISPELGPTLDTLQLDVADFATTIWQQMEELGMAPALQPTQGAMPAFASAFQRRAGGVLVASHLQSFLEVSYRVLRHLAQP
notes: cytokine mobilization agent administered to donors to mobilize stem cells to peripheral blood

How the values were obtained:
[1] = system: mobilized stem cells; conditions: plerixafor 240 μg/kg; cited from earlier work
[2] = system: CD34 mRNA expression in PBLs; assay: Quantitative real-time PCR of CD34 mRNA in peripheral blood lymphocytes (PBLs) of donors; format: in vivo, human; conditions: PBLs from G-CSF treated donors (mobilized, n=18) vs non-treated donors (non-mobilized, n=10); normalized to β-actin; p=0.02; FIGS. 1A, 1C
Procedure: (§1) All −70° C. frozen human peripheral blood cell samples used for this study were either from the Core Center of Excellence in Hematology (CCEH) at the Fred Hutchison Cancer Research Center or from Massachusetts General Hospital (MGH). These peripheral blood samples were obtained from donors not treated (non-mobilized samples) or treated with recombinant G-CSF (mobilized samples). Additional samples include peripheral blood samples from G-CSF treated donors that were further enriched for CD34+ stem cells. The non-mobilized, mobilized, and CD34+ stem cell enriched samples were obtained following human consent protocol 985.03-2 from Fred Hutchison Cancer Research Center. Additional fresh peripheral blood lymphocytes (PBLs) that were used to standardize the mRNA expressions of the frozen PBLs samples were obtained following human consent protocol MGH-2001P001379 from MGH, which involved the obligatory informed consent of all subjects.
(§2) Peripheral blood lymphocytes (PBLs) isolated from peripheral blood samples through leukapheresis were thawed in 37° C. water bath and washed with PBS+1% FBS twice. […] Quantitative real-time PCR was performed using Power SYBR Green reagent (Applied Biosystems, Foster City, Calif.) and the 7000 Real-Time PCR System.
(§3) Relative mRNA expression was calculated using a comparative count method (ddCT method). […]

[3] = system: Hox11 mRNA expression in PBLs; assay: Quantitative real-time PCR of Hox11 mRNA in peripheral blood lymphocytes (PBLs) of donors; format: in vivo, human; conditions: PBLs from G-CSF treated donors (mobilized, n=18) vs non-treated donors (non-mobilized, n=10); normalized to β-actin; p=0.000013; FIGS. 1B, 1D
Procedure: as §1, §2, §3

Molecule	time at which the number of mobilized stem cells peaks after administration [1] [h]	CD34 mRNA expression (relative quantity) [2]	Hox11 mRNA expression (relative quantity) [3]
c1cc(CN2CCCNCCNCCCNCC2)ccc1CN1CCCNCCNCCCNCC1 [plerixafor]	4 to 10		
B1		exclusively found in PBLs isolated from mobilized peripheral blood samples	exclusively found in PBLs isolated from mobilized peripheral blood samples
